Results on two molecules are retold here after US20200277373A1, “ANTI-TREM2 ANTIBODIES AND METHODS OF USE THEREOF” (Denali Therapeutics Inc., priority 2017, published 2020).

One assay deals with human macrophages. The experiment in a line: Cell survival assay, human monocyte-derived macrophages, restricted or no M-CSF, CellTiter Glo. It counts as cell-based. The note with it: plate coated antibody, 5 ng/mL or no M-CSF, day 6. As for the experimental part:
TREM2 can support microglia energy homeostasis (Ulland et al., Cell, 2017, 170:649-663). […] To understand if enhancing TREM2 activity with TREM2 agonistic antibodies is sufficient for macrophage/microglia survival under limited M-CSF conditions, human macrophage differentiation and survival studies were performed using antibodies as described herein. Human monocytes isolated from peripheral blood were incubated with 5 ng/mL M-CSF in the presence of titrated concentrations of plate coated TREM2 antibodies or isotype controls. On day 6 cell viability was determined by CellTiter Glo viability assay.
(In general: Cellular ATP, detected with luciferase, serves as a proxy for viable cell number.)

In assay [1] the target is T1, Human TREM2 expressing HEK cells (Homo sapiens, UniProt Q9NZC2).
T1 construct: expressed in transfected cells
T1 sequence (O43914 22-113 partner, one chain of several): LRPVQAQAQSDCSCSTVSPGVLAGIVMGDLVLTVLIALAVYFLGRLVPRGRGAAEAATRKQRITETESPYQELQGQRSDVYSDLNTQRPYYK
Description: FACS surface binding on HEK 293 overexpressing human TREM2 (H6). The note with it: FIG. 1A, mixed cell lines. As for the experimental part:
HEK 293 overexpressing human TREM2 (H6) and HEK 293 overexpressing GFP (B5) were harvested by 0.05% trypsin and incubated at 37° C. for 2 hours for surface TREM2 recovery. 293F overexpression mouse TREM2 were harvested and labelled with NucBlue live cell stain ReadyProbes reagent for 10 minutes (2 drops of reagent added per mL of media). After labeling, cells were washed twice with 1×PBS. NucBlue labeled 293F cells were mixed with H6 and B5 in FACS buffer (PBS-+-0.5% BSA) with human Trustain FcX solution (Biolegend, cat #422302) at a density of 10^6/mL per cell line. Mixed cell lines were seeded at 300,000 cells per well in a 96-well round-bottom and incubated 20 minutes at room temperature. After incubation, cells were centrifuged and test anti-TREM2 antibodies were added, then incubated for 45 minutes on ice. After incubation, cells were centrifuged and washed with FACS buffer three times. Cells were then incubated with secondary antibody (Alexa Fluor 647 AffiniPure F(ab′)2 fragment goat anti-mouse IgG, Fcγ fragment specific (1:200, Jackson ImmunoResearch, cat #115-606-071) for 30 minutes on ice. After incubation, cells were washed with FACS buffer three times and resuspended in 90 μL of FACS buffer, then analyzed by flow cytometry (BD FACSCanto II, San Jose, Calif.). 20,000 events were obtained for each sample.

For assay [2], the target named is T2, TREM2 (Homo sapiens, UniProt Q9NZC2).
T2 construct: expressed in transfected cells
The experiment in a line: pSyk antagonist assay on HEK293 TREM2/DAP12 cells. It counts as cell-based. The note with it: FIGS. 9E-9G. The procedure:
These experiments were performed as follows. Two days in advance of the experiment, HEK293 cells stably overexpressing TREM2 and DAP12 were plated at 40,000 cells/well on a 96 well poly-D-lysine-coated plate. Antibodies diluted in DMEM alone were immediately added to the cells, and allowed to incubate for 30 minutes at 37° C. The antibodies were then removed. […] The liposome/antibody solution was removed, and 35 μL lysis buffer (Cell Signaling Technologies, CST) was added using the liquid handler. The lysate was then incubated at 4° C. for 30 minutes, then either frozen at −80° C. or immediately carried forward to a pSyk AlphaLISA assay as described above. The percent inhibition was calculated as in FIG. 9C.
FIGS. 9F and 9G show inhibition by 21D4 and 21D11, respectively, at increasing antibody concentrations. These experiments were performed similarly to those described in FIG. 9E.
T2 sequence (O43914 22-113 partner, one chain of several): as above

Assay [3] has as its target T3, TREM2 (Homo sapiens, UniProt Q9NZC2).
T3 construct: macrophage cells that endogenously express TREM2; endogenous in cells; host or cells: primary human monocyte-derived macrophages from donor blood
T3 sequence (Q9NZC2 19-230): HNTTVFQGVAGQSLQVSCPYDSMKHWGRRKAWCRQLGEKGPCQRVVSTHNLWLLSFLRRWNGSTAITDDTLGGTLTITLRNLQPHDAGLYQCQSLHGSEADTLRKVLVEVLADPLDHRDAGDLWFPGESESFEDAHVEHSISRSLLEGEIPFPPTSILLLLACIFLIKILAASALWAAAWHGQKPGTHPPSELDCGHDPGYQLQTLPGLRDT
The experiment in a line: TREM2 pSyk antagonist assay on human macrophages (antibody pre-incubation, then liposomes). It counts as cell-based. The note with it: FIGS. 9C-9D, 30 nM antibody. As for the experimental part: Human macrophages were differentiated from donor blood using a human monocyte enrichment cocktail (Stem Cell Technologies) and culturing monocytes with human mCSF for five days in macrophage media (RPMI+10% Hyclone FBS+Glutamax+Pen/Strep+non-essential amino acids+sodium pyruvate). On the fifth day, the human macrophages were scraped from the flasks and were re-plated at 100,000 cells/well on a 96-well poly-D-lysine-coated plate in the macrophage media (without mCSF). The cells were incubated for 24 hours to adhere, then the media was removed.
Antibodies diluted in RPMI alone were immediately added to the cells, and allowed to incubate for 30 minutes at 37° C. The antibodies were then removed. Lipid vesicles comprised of 70% DOPC and 30% POPS (made according to the procedure for making vesicles described above) in HBSS were added to the cells and incubated […] at 37° C. The liposome/antibody solution was removed, and 35 μL lysis buffer (Cell Signaling Technologies, CST) was added using the liquid handler. The lysate was then incubated at 4° C. for 30 minutes, then either frozen at −80° C. or immediately carried forward to a pSyk AlphaLISA assay as described above.

B1: RS9.F6: anti-TREM2 antibody clone; VH SEQ ID NO:24, VL SEQ ID NO:35 (antibody, V domains shown)
VH: QVQLQQPGAELVKPGASVKLSCKASGYTFTSYWMHWVKQSPGRGLEWIGRSDPTTGGTNYNEKFKTKATLTVDKPSSTAYMQLSSLTSDDSAVYYCVRTSGTGDYWGQGTSLTVSS
VL: DVVMTQTPLSLPVSLGDQASISCRSSQSLVHNNGNTFLHWYLQKPGQSPKLLIYKVSNRFSGVPDRFSGSGSGTDFTLKISRVEAEDLGVYFCSQTTHVPPTFGGGTKLEIK
Consider B1, for which, in the assay on human macrophages, the “survival of human macrophages” value is reported as “increased the survival”. In assay [1], the “binding to human and mouse TREM2 HEK cells (in words)” value is “binding to both mouse and human TREM2 cells”.

B2: 21D11: anti-TREM2 antibody clone; VH SEQ ID NO:14, VL SEQ ID NO:25 (antibody, V domains shown)
VH: QVQLQQSGAELARPGASVKLSCKASGYTFTSYWIQWVKQRPGQGLEWIGTIYPGDGDARYTQKFKGKATLTADKSSSTTYMQLNSLASEDSAVYYCARNGITTAGYYAMDYWGQGTSVTVSS
VL: DIQMTQSPASLSVSVGETVTITCRASENIYSNLAWYQQKQGRSPQLLVYAATNLADGVPSRFSGSGSGTQYSLKINSLQSEDFGYYYCQHFWGTPYTFGGGTKVEIK
As to B2, in the assay with TREM2 [2], the “inhibition of liposome mediated pSyk” value is recorded as “weaker antagonistic activity”. Further, in the assay with TREM2 [3], the “liposome mediated pSyk signaling after antibody pre-incubation” value is given as “blocked”.
